Test results published in patent publication US20240383990A1.

Biological target: ALK1 / BMPRII receptor pair (BMPR Type I receptor ALK1 and BMPR Type II receptor BMPRII) on cells (UniProt P37023)
Test: cell-based or functional assay

Chain of ALK1 / BMPRII receptor pair (BMPR Type I receptor ALK1 and BMPR Type II receptor BMPRII) on cells (P37023 22-503 limits assumed, chain 1 of 2): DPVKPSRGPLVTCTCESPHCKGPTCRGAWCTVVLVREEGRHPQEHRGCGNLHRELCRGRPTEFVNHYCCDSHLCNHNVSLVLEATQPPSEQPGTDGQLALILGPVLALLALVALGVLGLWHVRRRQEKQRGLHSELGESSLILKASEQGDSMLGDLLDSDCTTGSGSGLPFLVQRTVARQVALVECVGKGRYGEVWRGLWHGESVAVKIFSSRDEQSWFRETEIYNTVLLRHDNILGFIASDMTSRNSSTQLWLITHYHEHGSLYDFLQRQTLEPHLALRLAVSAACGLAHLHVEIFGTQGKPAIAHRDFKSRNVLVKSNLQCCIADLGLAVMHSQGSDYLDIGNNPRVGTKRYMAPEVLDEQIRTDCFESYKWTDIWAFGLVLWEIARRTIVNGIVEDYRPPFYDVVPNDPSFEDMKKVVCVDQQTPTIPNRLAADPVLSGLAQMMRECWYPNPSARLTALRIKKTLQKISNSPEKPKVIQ
Chain of ALK1 / BMPRII receptor pair (BMPR Type I receptor ALK1 and BMPR Type II receptor BMPRII) on cells (Q13873 27-1038 limits assumed, chain 2 of 2, further chain): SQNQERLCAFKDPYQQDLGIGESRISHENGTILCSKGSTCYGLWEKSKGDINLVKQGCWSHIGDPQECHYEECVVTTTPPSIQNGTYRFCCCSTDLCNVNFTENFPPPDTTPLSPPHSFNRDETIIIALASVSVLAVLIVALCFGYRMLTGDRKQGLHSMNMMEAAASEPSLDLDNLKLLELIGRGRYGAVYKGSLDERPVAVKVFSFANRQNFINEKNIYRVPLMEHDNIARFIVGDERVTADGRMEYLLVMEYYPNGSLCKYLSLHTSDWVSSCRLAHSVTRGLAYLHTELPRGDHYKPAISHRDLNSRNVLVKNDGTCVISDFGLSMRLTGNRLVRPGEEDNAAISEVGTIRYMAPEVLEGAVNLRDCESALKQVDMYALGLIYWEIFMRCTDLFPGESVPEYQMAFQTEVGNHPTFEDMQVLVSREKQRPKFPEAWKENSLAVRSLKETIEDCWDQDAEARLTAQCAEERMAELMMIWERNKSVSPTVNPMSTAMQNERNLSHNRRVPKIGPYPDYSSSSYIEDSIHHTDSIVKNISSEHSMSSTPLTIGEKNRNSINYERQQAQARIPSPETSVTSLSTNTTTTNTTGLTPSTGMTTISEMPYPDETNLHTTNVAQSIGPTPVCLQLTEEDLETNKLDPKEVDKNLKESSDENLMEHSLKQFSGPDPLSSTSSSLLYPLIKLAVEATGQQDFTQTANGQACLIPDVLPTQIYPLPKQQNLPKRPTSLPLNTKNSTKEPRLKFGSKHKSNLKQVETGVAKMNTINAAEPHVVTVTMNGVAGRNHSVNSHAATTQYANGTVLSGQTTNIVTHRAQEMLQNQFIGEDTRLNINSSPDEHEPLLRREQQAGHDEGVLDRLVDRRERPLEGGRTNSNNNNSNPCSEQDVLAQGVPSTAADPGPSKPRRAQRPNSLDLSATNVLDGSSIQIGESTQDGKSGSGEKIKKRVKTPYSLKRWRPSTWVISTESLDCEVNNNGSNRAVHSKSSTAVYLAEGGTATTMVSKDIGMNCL

Row | Agonist activity, % Emax BMP9 [% Emax BMP9] | Agonist activity, EC50 [pM] | Agonist activity, EMAX (RLU) | pSMAD1 ELISA in HUVEC, RLU 15 minutes, at 0 nM (baseline) [RLU] | pSMAD1 ELISA in HUVEC, RLU 15 minutes, at 0.04 nM [RLU] | pSMAD1 ELISA in HUVEC, RLU 15 minutes, at 0.2 nM [RLU] | pSMAD1 ELISA in HUVEC, RLU 15 minutes, at 1 nM [RLU] | pSMAD1 ELISA in HUVEC, RLU 60 minutes, at 0 nM (baseline) [RLU] | pSMAD1 ELISA in HUVEC, RLU 60 minutes, at 0.04 nM [RLU] | pSMAD1 ELISA in HUVEC, RLU 60 minutes, at 0.2 nM [RLU] | pSMAD1 ELISA in HUVEC, RLU 60 minutes, at 1 nM [RLU] | Binder
1 | 100 | 20 | 2.64e+06 | 4.9 | 101 | 102 | 106 | 6.1 | 81.8 | 83.2 | 81.8 | BMP9 (ligand, UniProt Q9UK05 320-429, looked up) SAGAGSHCQKTSLRVNFEDIGWDSWIIAPKEYEAYECKGGCFFPLADDVTPTKHAIVQTLVHLKFPTKVGKACCVPTKLSPISVLYKDDMGVPTLKYHYEGMSVAECGCR
2 | 97 | 100 | 2.57e+06 |  |  |  |  |  |  |  |  | BMP10 (ligand, UniProt O95393 317-424, looked up) NAKGNYCKRTPLYIDFKEIGWDSWIIAPPGYEAYECRGVCNYPLAEHLTPTKHAIIQALVHLKNSQKASKACCVPTKLEPISILYLDKGVVTYKFKYEGMAVSECGCR
